The source of these data is patent US20240043507A1.

Assay in all cases: cell-based or functional assay
Assay [1] deals with spike protein of SARS-CoV-2 strain B.1.1.7 (SARS-CoV-2) (UniProt P0DTC2).
Assay [2] addresses spike protein of SARS-CoV-2 strain B.1.351 (SARS-CoV-2) (UniProt P0DTC2).
Assay [3] concerns the target spike protein of SARS-CoV-2 strain Victoria (SARS-CoV-2/human/AUS/VIC01/2020) (SARS-CoV-2) (UniProt P0DTC2).
For assay [4], the target named is SARS-CoV-2 spike protein on authentic virus, strain B.1.1.7 (SARS-CoV-2) (UniProt P0DTC2).
Assay [5] deals with SARS-CoV-2 spike protein on authentic virus, strain SARS-CoV-2/human/AUS/VIC01/2020 (Victoria) (SARS-CoV-2) (UniProt P0DTC2).
The target of assay [6] is spike protein of SARS-CoV-2 strain P.1 (SARS-CoV-2) (UniProt P0DTC2).

Some results are limits rather than exact numbers.

AZD8895 (antibody): the IC50 (FRNT neutralisation) in assay [1] is 0.011 µg/mL; in assay [2] it was 0.046 µg/mL; in assay [3], 0.005 µg/mL. This substance also registered an IC50 (FRNT, live virus neutralisation) in assay [3] of 0.005 µg/mL. Moreover, the values for the IC50 (ug/ml), FRNT in assay [4] and in assay [5] were 0.011 µg/mL and 0.005 µg/mL, respectively.
Consider ADG10 (antibody), for which the FRNT50 ratio P.1/Victoria in assay [6] came to 0.5. Moreover, in assay [1], the FRNT50 ratio B.1.1.7/Victoria was 1.8 and the IC50 (FRNT neutralisation) was determined as 0.01 µg/mL. In assay [2], the FRNT50 ratio B.1.351/Victoria amounted to 1.9 and the IC50 (FRNT neutralisation) is 0.011 µg/mL. Besides, the IC50 (FRNT neutralisation) in assay [3] stood at 0.006 µg/mL.
In the case of AZD1061 (antibody), the IC50 (FRNT neutralisation) in assay [1] is 0.012 µg/mL; in assay [2], 0.014 µg/mL; in assay [3], 0.013 µg/mL. In assay [3], the IC50 (FRNT, live virus neutralisation) is 0.013 µg/mL. Also, the IC50 (ug/ml), FRNT was determined as 0.012 µg/mL in assay [4] and 0.013 µg/mL in assay [5].
With S309 (antibody), the FRNT50 ratio P.1/Victoria in assay [6] turned out to be 1.9. Moreover, in assay [1], the FRNT50 ratio B.1.1.7/Victoria came to 1.5 and the IC50 (FRNT neutralisation) came to 0.078 µg/mL. For the same substance, in assay [2], the FRNT50 ratio B.1.351/Victoria was 2 and the IC50 (FRNT neutralisation) is 0.082 µg/mL. In addition, in assay [3], the IC50 (FRNT neutralisation) was found to be 0.04 µg/mL.
On to ADG20 (antibody), for which, in assay [6], the FRNT50 ratio P.1/Victoria was 2.2. The FRNT50 ratio B.1.1.7/Victoria in assay [1] was determined as 1.4. Further, the results for the IC50 (FRNT neutralisation) in assay [1], in assay [2] and in assay [3] were 0.006 µg/mL, 0.01 µg/mL and 0.004 µg/mL, respectively. For the same substance, the FRNT50 ratio B.1.351/Victoria in assay [2] came out at 2.5.
As for LY-CoV16 (antibody), in assay [6], the FRNT50 ratio P.1/Victoria was > 291. For the same substance, in assay [1], the FRNT50 ratio B.1.1.7/Victoria was 1.5 and the IC50 (FRNT neutralisation) stood at 3.23 µg/mL. Further, in assay [2], the FRNT50 ratio B.1.351/Victoria is > 291 and the IC50 (FRNT neutralisation) was > 10 µg/mL. The same substance came in with an IC50 (FRNT neutralisation) in assay [3] of 0.034 µg/mL.
REGN10987 (antibody): the IC50 (FRNT neutralisation) in assay [1] came to 0.028 µg/mL; in assay [2] it was 0.007 µg/mL; in assay [3], 0.032 µg/mL. The substance also yielded an IC50 (FRNT, live virus neutralisation) in assay [3] of 0.032 µg/mL. The results for the IC50 (ug/ml), FRNT in assay [4] and in assay [5] were 0.028 µg/mL and 0.032 µg/mL, respectively.
In the case of REGN10933 (antibody), the results for the IC50 (FRNT neutralisation) in assay [1], in assay [2] and in assay [3] were 0.014 µg/mL, 3.28 µg/mL and 0.004 µg/mL, respectively. In assay [3], this substance had an IC50 (FRNT, live virus neutralisation) of 0.004 µg/mL. Besides, the IC50 (ug/ml), FRNT is 0.014 µg/mL in assay [4] and 0.004 µg/mL in assay [5].
Take LY-CoV555 (antibody): the FRNT50 ratio P.1/Victoria in assay [6] was > 1550. Besides, in assay [1], the FRNT50 ratio B.1.1.7/Victoria worked out at 1.5 and the IC50 (FRNT neutralisation) came to 0.009 µg/mL. In addition, in assay [2], the FRNT50 ratio B.1.351/Victoria was > 1550 and the IC50 (FRNT neutralisation) is > 10 µg/mL. In assay [3], this substance had an IC50 (FRNT neutralisation) of 0.006 µg/mL.
With ADG30 (antibody), the FRNT50 ratio P.1/Victoria in assay [6] stood at 0.3. Also, in assay [1], the FRNT50 ratio B.1.1.7/Victoria turned out to be 2.5. Also, the IC50 (FRNT neutralisation) was 0.016 µg/mL in assay [1], 0.029 µg/mL in assay [2] and 0.007 µg/mL in assay [3]. Further, the FRNT50 ratio B.1.351/Victoria in assay [2] was determined as 4.4.
